Measurements taken from US20030108957A1.
Where “and” joins values, the source holds several entries; their conditions need not be identical. Equal values may be shown once.

Legend:
[1] = target: E. coli DnaK (E. coli), A1A766
[2] = target: GroEL (E. coli), P0A6F5
[3] = target: E. coli DnaK (E. coli), A1A766; experiment: cell-based or functional assay
[4] = target: Hsp60 (the human equivalent of GroEL) (human), P10809; experiment: fluorescence polarization, 1 nM labeled peptide, 4 µM protein; blank about 62
Sequence of Hsp60 (the human equivalent of GroEL) (human), P10809 (P10809 27-573 limits assumed): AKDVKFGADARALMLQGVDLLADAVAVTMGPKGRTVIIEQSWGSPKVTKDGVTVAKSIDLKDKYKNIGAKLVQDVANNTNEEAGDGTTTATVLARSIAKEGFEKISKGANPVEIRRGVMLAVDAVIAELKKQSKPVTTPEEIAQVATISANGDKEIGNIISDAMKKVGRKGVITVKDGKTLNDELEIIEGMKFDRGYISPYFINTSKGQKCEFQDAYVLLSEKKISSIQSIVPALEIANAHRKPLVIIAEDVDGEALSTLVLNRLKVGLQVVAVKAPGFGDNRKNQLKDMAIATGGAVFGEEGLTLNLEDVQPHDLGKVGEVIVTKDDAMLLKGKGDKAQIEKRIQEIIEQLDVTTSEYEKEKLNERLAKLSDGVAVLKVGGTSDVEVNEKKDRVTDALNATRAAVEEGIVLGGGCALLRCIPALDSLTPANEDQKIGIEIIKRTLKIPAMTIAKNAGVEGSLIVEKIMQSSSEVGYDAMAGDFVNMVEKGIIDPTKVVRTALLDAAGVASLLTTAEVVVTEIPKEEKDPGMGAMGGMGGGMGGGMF

[5] = target: E. coli DnaK aa583-615 (hinge region between C-terminal helices D and E) (E. coli)
[6] = target: E. coli DnaK aa588-615 (E. coli)
[7] = target: T1, GroES, P0A6F9
T1 chain: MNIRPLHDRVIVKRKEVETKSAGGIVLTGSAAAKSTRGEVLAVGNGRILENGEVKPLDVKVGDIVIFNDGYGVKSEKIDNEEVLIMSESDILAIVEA

[8] = target: E. coli DnaK (E. coli), A1A766; remark: listed apart in the source
[9] = target: T2, GrpE, P09372
T2 chain: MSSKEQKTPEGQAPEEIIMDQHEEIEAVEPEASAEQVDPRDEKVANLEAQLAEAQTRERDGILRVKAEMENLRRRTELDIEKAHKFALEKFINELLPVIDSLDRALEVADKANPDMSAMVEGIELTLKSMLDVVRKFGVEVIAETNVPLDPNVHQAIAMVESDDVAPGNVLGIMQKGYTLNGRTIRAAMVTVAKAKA

[10] = target: GroEL (E. coli), P0A6F5; remark: listed apart in the source
[11] = target: guanyl-nucleotide binding protein Ras (21 kDa); experiment: fluorescence polarization, 1 nM labeled peptide, 4 µM Ras; background without protein 46±7
[12] = target: Hsp60 (the human equivalent of GroEL) (human), P10809; experiment: fluorescence polarization, 1 nM labeled peptide, 2 µM protein; blank about 62
[13] = target: E. coli DnaK (E. coli), A1A766; remark: listed apart in the source

Binder | Millipolarization after preincubation (millipolarization) [1] | Millipolarization after preincubation (millipolarization) [2] | ATPase activity of recombinant DnaK (EnzChek assay, UV absorbance at 360 nm), 50 molar equivalents of peptide (fraction of the original value) [3] | Millipolarization (no competing peptide) (millipolarization) [1] | Millipolarization (no competing peptide) (millipolarization) [2] | minipolarization value (millipolarization) [4] | Kd [5] [µM] | Kd [6] [µM] | minipolarization value (millipolarization) [7] | minipolarization value (millipolarization) [8] | minipolarization value (millipolarization) [9] | minipolarization value (millipolarization) [10] | millipolarization units (millipolarization units) [11] | minipolarization value (millipolarization) [12] | Kd [13] [µM] | millipolarization over the background [13] [%]
VDKGSYLPRPTPPRPIYNRN (modifications not checked) [pyrrhocoricin (unlabeled, all L-amino acids, without sugar)] | 110 and 84 | 62 | < 0.5 |  |  |  |  |  |  |  |  |  |  |  |  | 
KVDKGSYLPRPTPPRPIYNRN (modifications not checked) [fluorescein-K-pyrrhocoricin] |  |  |  | 126 | 70 | 90 | 50.8 | 93 | < 62 | 100 and 95 | < 62 | > 100 and 85 | 52 | 62 | 1.1 | 50
